Literature values as cited in PMC8035318.

Molecular target: Polκ RIR (Homo sapiens) (UniProt Q9UBT6)
Assay: SPR

Substance: Rev1 CT (from UniProt Q9UBZ9)
- Kd: 1.7 µM
